*1 amine or outer side, *2 acyl side, *3 side chain or, on linkers, in order; H or OH if unused. Side-chain parts run from the residue outwards. [ ]: non-standard residue; d: D form. pAMF = para-azidomethylphenylalanine, [N-]=[N+]=NCc1ccc(C[C@H](N[*:1])C(=O)[*:2])cc1
Assays:
[1] = molecular target: T1, Human IL-2Rβ, His tag (Table 10) (human, UniProt P14784 27-239, limits assumed); assay: SPR (Biacore T200), receptor captured on anti-histidine surface
T1 construct: not shown: polyhistidine tag
T1 sequence (looked up): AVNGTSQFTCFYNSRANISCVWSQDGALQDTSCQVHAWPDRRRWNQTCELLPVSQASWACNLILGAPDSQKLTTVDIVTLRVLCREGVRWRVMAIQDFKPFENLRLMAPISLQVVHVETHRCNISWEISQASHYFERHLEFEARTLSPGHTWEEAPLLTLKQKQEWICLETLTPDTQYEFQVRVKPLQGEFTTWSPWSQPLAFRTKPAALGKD
Experimental: (§1) A Surface Plasmon Resonance (SPR) assay on a Biacore T200 (GE Healthcare) instrument was used to determine the monovalent affinities of pegylated aldesleukin variants against polyhistidine-tagged or Fc-tagged IL-2 Receptors. Biacore T200 Evaluation Software was used to fit each titration series to a 1:1 binding model or steady state affinity. The association (kₒₙ, M⁻¹ s⁻¹) and dissociation (koff, s⁻¹) rate constants were determined for each set of titrations and used to calculate the dissociation constant, KD=koff/kₒₙ, of each sample against each receptor. koff/kₒₙ values are not reported herein.
(§2) To measure the affinity of CON1 and aldesleukin for IL-2R subunits, receptors were captured on either an anti-histidine or anti-hu Fc antibody surface. […] CON1 has a six-fold lower affinity for Human and Cynomolgus/Rhesus IL-2-Rβ than aldesleukin.

[2] = molecular target: T2, Cynomolgus/Rhesus IL-2Rβ, His tag (Table 10) (cynomolgus monkey / rhesus monkey, UniProt Q38J85 27-240); assay: as above
T2 sequence: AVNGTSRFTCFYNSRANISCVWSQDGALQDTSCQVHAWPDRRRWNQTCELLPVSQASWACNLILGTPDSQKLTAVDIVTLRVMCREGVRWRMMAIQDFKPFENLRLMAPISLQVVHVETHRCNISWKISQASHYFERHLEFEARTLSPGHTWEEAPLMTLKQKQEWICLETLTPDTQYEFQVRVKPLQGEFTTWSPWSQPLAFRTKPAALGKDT
Experimental: as §1, §2

[3] = molecular target: T3, mouse IL-2Rαβγc (on CTLL2-STAT5 reporter cells) (mouse, UniProt P01590 22-268; P16297 27-539; P34902 23-369); assay: cell-based or functional assay
T3 sequence (looked up) 1: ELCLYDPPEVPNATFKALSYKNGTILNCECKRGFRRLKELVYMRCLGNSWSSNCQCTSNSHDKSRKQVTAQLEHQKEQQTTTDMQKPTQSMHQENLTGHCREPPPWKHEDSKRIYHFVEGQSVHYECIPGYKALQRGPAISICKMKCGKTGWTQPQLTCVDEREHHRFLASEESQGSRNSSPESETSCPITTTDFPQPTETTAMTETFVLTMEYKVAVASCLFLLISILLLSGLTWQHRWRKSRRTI
T3 sequence (looked up) 2: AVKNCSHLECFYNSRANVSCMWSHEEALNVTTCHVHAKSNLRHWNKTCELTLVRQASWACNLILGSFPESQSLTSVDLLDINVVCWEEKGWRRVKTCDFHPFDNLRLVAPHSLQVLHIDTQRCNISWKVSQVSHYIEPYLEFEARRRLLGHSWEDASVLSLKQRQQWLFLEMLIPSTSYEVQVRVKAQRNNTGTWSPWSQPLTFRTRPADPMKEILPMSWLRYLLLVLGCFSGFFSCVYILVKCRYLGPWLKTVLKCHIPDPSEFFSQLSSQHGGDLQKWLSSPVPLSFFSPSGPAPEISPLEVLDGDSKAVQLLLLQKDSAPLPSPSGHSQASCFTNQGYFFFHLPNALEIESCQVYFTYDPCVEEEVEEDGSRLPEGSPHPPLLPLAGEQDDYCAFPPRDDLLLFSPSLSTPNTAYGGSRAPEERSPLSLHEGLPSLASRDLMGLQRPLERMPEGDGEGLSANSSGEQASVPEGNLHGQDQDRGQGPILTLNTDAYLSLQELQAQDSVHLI
T3 sequence (looked up) 3: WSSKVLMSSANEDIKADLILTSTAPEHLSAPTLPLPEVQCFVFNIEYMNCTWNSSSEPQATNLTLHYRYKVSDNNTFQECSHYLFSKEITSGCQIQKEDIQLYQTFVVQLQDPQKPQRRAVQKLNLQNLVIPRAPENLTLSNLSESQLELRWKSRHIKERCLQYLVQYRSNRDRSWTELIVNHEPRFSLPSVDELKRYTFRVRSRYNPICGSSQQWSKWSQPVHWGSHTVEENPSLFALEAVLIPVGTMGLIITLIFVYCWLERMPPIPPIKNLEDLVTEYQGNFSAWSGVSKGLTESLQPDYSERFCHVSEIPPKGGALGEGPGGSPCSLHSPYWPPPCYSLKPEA

B1: Ald_S4pAMF(PEG1)/R37A/F41K (CON1) (ligand)
chain: PTS[pAMF]([DBCO‑triazole-mPEG 30 kDa])STKKTQLQLEHLLLDLQMILNGINNYKNPKLTAMLTKKFYMPKKATELKHLQCLEEELKPLEEVLNLAQSKNFHLRPRDLISNINVIVLELKGSETTFMCEYADETATIVEFLNRWITFSQSIISTLT
modifications: not fully specified (bridges)
notes: also called Des-A1_IL-2_S4pAMF(PEG1)/R37A/F41K/C124S
KD/KD (human) [1]: 1 ratio | Kd [1]: 4.4 µM | KD/KD (human) [2]: 1.2 ratio | Kd [2]: 5.4 µM | STAT5-CTLL2 EC50 [3]: 57.4 nM | STAT5-CTLL2 EC50 Fold-change [3]: 5300 fold
